Reference: paper doi:10.1101/2021.03.17.435802

Legend:
ACE2(HH:NN)-Fc (human) = ACE2(HH:NN)-Fc (human) (UniProt Q9BYF1); assay: SPR
[1] = biological target: catalytically active ACE2-Fc (human) (UniProt Q9BYF1); assay: SPR

Q: Angiotensin II (peptide) was tested. Which Kd (ACE2(HH:NN)-Fc (human)) did it give?
A: 1300 nM

Q: And the Kd [1]?
A: 117 nM
